The source of these data is paper PMC2856799.

Experiment [1] has as its target Insulin (Pekar and Frank 1972 preparation). Briefly: Sedimentation equilibrium. The note with it: pH 7.0; 24.5 °C; ionic strength 0.1; not stated (pH 7.0); scale: log10; cited from earlier work.
Another experiment has as its target Insulin (zinc-free) (UniProt P01317). The experiment is described as follows: Composition-gradient static light scattering. As to conditions: pH 10.0, 25 °C, 0.095 M NaCl, 5.3 mM glycine, 3.2 mM NaOH, scale: log10.
UniProt P01317, sequence (P01317 whole entry): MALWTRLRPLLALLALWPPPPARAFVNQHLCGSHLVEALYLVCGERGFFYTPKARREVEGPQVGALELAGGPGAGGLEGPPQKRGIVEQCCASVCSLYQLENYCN

Regarding “Insulin (Pekar and Frank 1972 preparation)”, in experiment [1], the log10(K6a) (stepwise hexamer addition) was 3.69, the log10(K12) (monomer-dimer) is 5.64, the log10(K26) (3 dimers -> hexamer) is 8.36 and the log10(Ka) (isodesmic) was 4.43.
Insulin (zinc-free): the log10(Ka) (enhanced isodesmic; monomer addition to dimer and higher oligomers) with Insulin (zinc-free) stood at 3.82.
